Assays:
[1] = Chemotherapy of the patient before MPDL3280A; type: in vivo, human; conditions: one patient, single cycle
Source text: He then developed a perirectal abscess and was switched to dose-reduced carboplatin and pemetrexed, together with bevacizumab for three additional cycles and was transitioned to maintenance pemetrexed and bevacizumab.

PD-L1 = target: T1, PD-L1 (Homo sapiens, UniProt Q9NZQ7); test: Phase 1 study of MPDL3280A in a patient with metastatic lung adenocarcinoma; type: in vivo
T1 construct: their tumor was also tested for PD-L1 expression and found to be positive; endogenous in cells; host or cells: tumour cells and immune cells (macrophages/monocytes) of a patient with metastatic lung adenocarcinoma
T1 sequence (Q9NZQ7 19-290): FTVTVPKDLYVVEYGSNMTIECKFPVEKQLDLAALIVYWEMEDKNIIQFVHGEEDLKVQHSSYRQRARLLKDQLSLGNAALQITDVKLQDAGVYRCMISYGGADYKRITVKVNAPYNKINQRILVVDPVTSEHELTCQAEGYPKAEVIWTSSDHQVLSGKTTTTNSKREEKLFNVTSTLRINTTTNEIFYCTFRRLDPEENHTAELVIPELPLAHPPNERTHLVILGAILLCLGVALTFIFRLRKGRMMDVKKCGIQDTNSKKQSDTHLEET
Protocol: The patient also consented to enroll on a phase 1 multicenter open-label dose-escalation study to evaluate the safety, tolerability, and pharmacokinetics of MPDL3280A (DF/HCC Protocol 11-314; NCT#01375842). […] As part of the inclusion criteria, their tumor was also tested for PD-L1 expression and found to be positive. The drug was administered as a single agent at a dose of 20 mg/kg every 3 weeks. […] Tumor response and evaluation was performed by physical examination and serial chest/abdomenipelvic CT scans, and target lesions were evaluated using RECIST criteria. Following treatment discontinuation at 1 year, the patient has continued to be monitored every 3 months by examination and CT scans.
Thus, after a temporary decline, the patient subsequently received sixteen cycles of MPDL3280A over a one-year period. […] They completed one year of therapy per protocol and remained without evidence of disease progression for an additional 12 months. At this point, they began to lose weight again and developed regrowth of the right adrenal mass (FIG. 1D), leading to re-initiation of MPDL3280A therapy.

[2] = test system: CD4+ T cells and CD8+ T cells; test: T cell proliferation assay, monocytes from blood pre- and 1 h post-MPDL3280A infusion; type: cell-based, human; conditions: in the presence of circulating MPDL3280A (1 h post- vs pre-infusion), especially with monocytes primed with IFNγ
Protocol: PBMCs were isolated from patient blood samples immediately pre- and 1 h post-treatment with MPDL3280A, as well as from a normal donor by Ficoll and plated in a density of 4×10^6 cells/ml to a 96-well plate. After 2 h at 37° C. non-adherent cells (lymphocyte portion) were removed by pipetting and remaining adherent cells (monocyte portion) were cultured with or without 250 ng/ml IFNγ. At 24 h, non-adherent lymphocytes were labeled with CFSE. Monocytes (IFNγ treated or untreated) were harvested by 5 mM EDTA treatment and resuspended in fresh medium. Both lymphocytes and monocytes were then plated to a 96-well plate pre-coated with 10 μg/ml OKT3 antibody. Proliferation of CD4+ T cells and CD8+ T cells were monitored at 72 h post-stimulation by CSFE dilution.

[3] = one patient, sixteen cycles over one year

| Time without evidence of disease progression after completing one year of therapy (PD-L1; off therapy) [months] | Tumor response by RECIST criteria (PD-L1; one patient, 20 mg/kg every 3 weeks, sixteen cycles over a one-year period) | Size of the paratracheal mass on serial chest CT scans (PD-L1; one patient, FIG. 1 panel C) | Right adrenal lesion on restaging scans after re-initiation of therapy (PD-L1; one patient, after another 3 months of MPDL3280A) | Symptoms (PD-L1; [3]) | Substance | Tolerability [1] | Tolerability (PD-L1; one patient, 20 mg/kg every 3 weeks, 16 cycles) | Body weight (PD-L1; [3]) | Narcotic pain medication (PD-L1; [3]) | T cell activation (proliferation of autologous or allogeneic CD4+/CD8+ T cells) [2] |
| --- | --- | --- | --- | --- | --- | --- | --- | --- | --- | --- |
| – | – | – | – | – | carboplatin and paclitaxel | tolerated poorly | – | – | – | – |
| 12 | partial response | reduction in size | rapid improvement | complete resolutions of their symptoms | MPDL3280A: an engineered anti-PDL1 antibody (Genentech) | – | tolerated well other than a mild flare of their underlying chronic obstructive pulmonary disease | return to pre-diagnosis body weight | discontinuation of all narcotic pain medication | significantly greater |

Source: patent US20170115291A1, “Activating JAK Kinase Biomarkers Predictive of Anti-Immune Checkpoint Inhibitor Response” (Dana-Farber Cancer Institute, Inc., priority 2014, published 2017)
